Data from patent US20170119864A1, “SACCHARIDE VACCINE FORMULATION” (GLAXOSMITHKLINE BIOLOGICALS S.A., priority 2013, published 2017).

How the values were obtained:
[1] = value used in equation 1; cited from earlier work
[2] = RP-HPLC MAG-Tn3 content before and after 0.2 μm filtration; format: physicochemical; conditions: L-arginine-L-arginine-mono-hydrochloride buffer system
Experimental: RP-HPLC was performed to assess MAG-Tn3 content in the formulations before and after filtration with a 0.2 μm syringe filter. A Waters 2996 HPLC equipped with UV detection was used with a Poros R 1/10 column from Applied Biosciences and a 0-100% acetonitrile in 0.1% triflouroacetic acid gradient. Size-exclusion chromatography was performed using a Waters 2996 HPLC equipped with a fluorescence detector (Waters) to assess the aggregation profiles of the resulting formulations using a TSKgel G3000PWxl column (Tosoh Bioscience LLC) and a mobile phase of 200 mM NaCl. SDS-PAGE analysis was done using 4-12% Bis-Tris gels (Invitrogen) and MES running buffer (Invitrogen). The gels were stained using Invitrogen's SilverQuest. Centrifuged and non-centrifuged samples were run on gel to assess the presence of precipitate in the formulations. Centrifugation was performed for 15 minutes at 18 000 g. […]
RP-HPLC was performed to assess MAG-Tn3 content in the formulations before and after filtration with a 0.2 μm syringe filter. […] Size-exclusion chromatography was performed using a Waters 2996 HPLC equipped with a fluorescence detector (Waters) to assess the aggregation profiles of the resulting formulations using a TSKgel G3000PWxl column (Tosoh Bioscience LLC) and a mobile phase of 200 mM NaCl. […]

Row | Compound | pKa [1] | dose up to which MAG-Tn3 appears soluble ([2]; with CpG7909) [μg/dose] | solubility ([2]; with CpG7909, final reconstituted vaccine, read-out: concentration up to which MAG-Tn3 appears soluble) [µg/mL]
1 | N=C(N)NCCC[C@H](N)C(=O)O [Arginine] | molar ratios of Arg:ArgHCl (Arg pKa = 8.991). | – | –
2 | CC[C@H](C)[C@H](NC(=O)CNC(=O)[C@@H](NC(=O)[C@H](Cc1ccccc1)NC(=O)[C@H](CCCCN)NC(=O)[C@H](CO)NC(=O)[C@H](CC(N)=O)NC(=O)[C@H](C)NC(=O)[C@H](CCCCN)NC(=O)[C@@H](NC(=O)[C@H](Cc1ccc(O)cc1)NC(=O)[C@H](CCC(N)=O)NC(=O)C(NC(=O)C(NC(=O)C(N)CO[C@H]1O[C@H](CO)[C@H](O)[C@H](O)[C@H]1NC(C)=O)C(C)O[C@H]1O[C@H](CO)[C@H](O)[C@H](O)[C@H]1NC(C)=O)C(C)O[C@H]1O[C@H](CO)[C@H](O)[C@H](O)[C@H]1NC(C)=O)[C@@H](C)CC)[C@@H](C)CC)C(=O)N[C@H](C(=O)N[C@@H](CCC(=O)O)C(=O)N[C@@H](CC(C)C)C(=O)NCCCC[C@H](NC(=O)[C@H](CC(C)C)NC(=O)[C@H](CCC(=O)O)NC(=O)[C@@H](NC(=O)[C@@H](NC(=O)CNC(=O)[C@@H](NC(=O)[C@H](Cc1ccccc1)NC(=O)[C@H](CCCCN)NC(=O)[C@H](CO)NC(=O)[C@H](CC(N)=O)NC(=O)[C@H](C)NC(=O)[C@H](CCCCN)NC(=O)[C@@H](NC(=O)[C@H](Cc1ccc(O)cc1)NC(=O)[C@H](CCC(N)=O)NC(=O)C(NC(=O)C(NC(=O)C(N)CO[C@H]1O[C@H](CO)[C@H](O)[C@H](O)[C@H]1NC(C)=O)C(C)O[C@H]1O[C@H](CO)[C@H](O)[C@H](O)[C@H]1NC(C)=O)C(C)O[C@H]1O[C@H](CO)[C@H](O)[C@H](O)[C@H]1NC(C)=O)[C@@H](C)CC)[C@@H](C)CC)[C@@H](C)CC)[C@@H](C)O)C(=O)NCCCC[C@H](NC(=O)[C@H](CCCCNC(=O)[C@H](CC(C)C)NC(=O)[C@H](CCC(=O)O)NC(=O)[C@@H](NC(=O)[C@@H](NC(=O)CNC(=O)[C@@H](NC(=O)[C@H](Cc1ccccc1)NC(=O)[C@H](CCCCN)NC(=O)[C@H](CO)NC(=O)[C@H](CC(N)=O)NC(=O)[C@H](C)NC(=O)[C@H](CCCCN)NC(=O)[C@@H](NC(=O)[C@H](Cc1ccc(O)cc1)NC(=O)[C@H](CCC(N)=O)NC(=O)C(NC(=O)C(NC(=O)C(N)CO[C@H]1O[C@H](CO)[C@H](O)[C@H](O)[C@H]1NC(C)=O)C(C)O[C@H]1O[C@H](CO)[C@H](O)[C@H](O)[C@H]1NC(C)=O)C(C)O[C@H]1O[C@H](CO)[C@H](O)[C@H](O)[C@H]1NC(C)=O)[C@@H](C)CC)[C@@H](C)CC)[C@@H](C)CC)[C@@H](C)O)NC(=O)[C@H](CC(C)C)NC(=O)[C@H](CCC(=O)O)NC(=O)[C@@H](NC(=O)[C@@H](NC(=O)CNC(=O)[C@@H](NC(=O)[C@H](Cc1ccccc1)NC(=O)[C@H](CCCCN)NC(=O)[C@H](CO)NC(=O)[C@H](CC(N)=O)NC(=O)[C@H](C)NC(=O)[C@H](CCCCN)NC(=O)[C@@H](NC(=O)[C@H](Cc1ccc(O)cc1)NC(=O)[C@H](CCC(N)=O)NC(=O)C(NC(=O)C(NC(=O)C(N)CO[C@H]1O[C@H](CO)[C@H](O)[C@H](O)[C@H]1NC(C)=O)C(C)O[C@H]1O[C@H](CO)[C@H](O)[C@H](O)[C@H]1NC(C)=O)C(C)O[C@H]1O[C@H](CO)[C@H](O)[C@H](O)[C@H]1NC(C)=O)[C@@H](C)CC)[C@@H](C)CC)[C@@H](C)CC)[C@@H](C)O)C(=O)NCCC(=O)O)[C@@H](C)O (stereo partly drawn) [MAG-Tn3] | – | ≤ 450 | ≤ 900
